± gives the uncertainty stated by the source.
Experiment: self-splicing fitness, log relative to wild type (ln ratio); higher = more splicing; Tetrahymena group I intron in knt gene, E. coli kanamycin selection, DiMSum; sequences stand for … in CUCUCU…GGAGGGAAAAGUUAUCAGGCAUGCACCUGGUAGCUAGUCUUUAAACCAAUAGAUUGCAUCGGUUUAAAAGGCAAGACCGUCAAAUUGCGGGAAAGGGGUCAACAGCCGUUCAGUACCAAGUCUCAGGGGAAACUUUGAGAUGGCCUUGCAAAGGGUAUGGUAAUAAGCUGACGGACAUGGUCCUAACCACGCAGCCAAGUCCUAAGUCAACAGAUCUUCUGUUGAUAUGGAUGCAGUUCACAGACUAAAUGUCGGUCGGGGAAGAUGUAUUCUUCUCAUAAGAUAUAGUCGGACCUCUCCUUAAUGGGAGCUAGCGGAUGAAGUGAUGCAACACUGGAGCCGCUGGGAACUAAUUUGUAUGCGAAAGUAUAUUGAUUAGUUUUGGAGUACUCGUGGUCG
Method in brief: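 DiMSum derived fitness as the error-weighted combination of fold changes across replicates, kanamycin versus no kanamycin, normalised to wild type. E. coli BL21(DE3) held the library, which randomised all eight P1ex-region intron nucleotides within the knt kanamycin-resistance gene on pET-22b(+). Six replicate transformations grew overnight at 37°C or 30°C on LB agar with or without 25 μg/mL kanamycin, also containing 100 μg/mL carbenicillin, 50 μM IPTG and 0.2% rhamnose, and pooled colonies were amplicon-sequenced on an Illumina HiSeq 2500.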

Sequence	self-splicing fitness (ln) (30 °C)	self-splicing fitness (ln) (37 °C)
UUAAAGCAAUAUUACGUACC	-1.73 ± 0.12	-0.333 ± 0.16
UUAAAGCAAUAUUACGUAGC	-4.43 ± 0.3	-2.96 ± 0.48
UUAAAGCAAUAUUACGUCAA	-0.222 ± 0.082	-0.107 ± 0.095
UUAAAGCAAUAUUACGUCCA	-0.0955 ± 0.086	0.343 ± 0.11
UUAAAGCAAUAUUACGUCGA	0.349 ± 0.082	0.262 ± 0.095
UUAAAGCAAUAUUACGUUCU	-1.08 ± 0.091	-0.401 ± 0.12
UUAAAGCAAUAUUACGUUGC	-3.24 ± 0.28	-2.66 ± 0.3
UUACAGCAAUAUUACGACAA	-0.25 ± 0.07	0.353 ± 0.083
UUACAGCAAUAUUACGACGU	-3.61 ± 0.31	-3.23 ± 0.4
UUACAGCAAUAUUACGAUCU	-1.88 ± 0.063	-1.02 ± 0.079
UUACAGCAAUAUUACGCAUC	-3.36 ± 0.15	-1.6 ± 0.13
UUACAGCAAUAUUACGCCUG	-0.557 ± 0.054	0.0548 ± 0.081
UUACAGCAAUAUUACGCGGC	-2.62 ± 0.14	-2.03 ± 0.18
UUACAGCAAUAUUACGCUGC	-2.9 ± 0.35	–
UUACAGCAAUAUUACGGAGU	-4.03 ± 0.29	-2.7 ± 0.22
UUACAGCAAUAUUACGGCCG	-0.529 ± 0.16	-0.389 ± 0.16
UUACAGCAAUAUUACGGCUG	-2.21 ± 0.17	-1.42 ± 0.2
UUACAGCAAUAUUACGUAAU	-3.27 ± 0.26	-2.32 ± 0.19
UUACAGCAAUAUUACGUACC	-1.19 ± 0.21	-0.649 ± 0.33
UUACAGCAAUAUUACGUGCC	-2.86 ± 0.15	-0.031 ± 0.13
UUAGAGCAAUAUUACGAAUG	-2.2 ± 0.14	-2.55 ± 0.26
UUAGAGCAAUAUUACGACGG	0.111 ± 0.12	-7.81e-05 ± 0.19
UUAGAGCAAUAUUACGAUGC	-2.04 ± 0.21	-2.57 ± 0.41
UUAGAGCAAUAUUACGCAGA	1.56 ± 0.32	–
UUAGAGCAAUAUUACGCAGG	-2.7 ± 0.2	-0.784 ± 0.16

Sequence	self-splicing fitness (ln) (30 °C)	self-splicing fitness (ln) (37 °C)
UUAGAGCAAUAUUACGCGUA	-1.59 ± 0.11	-0.559 ± 0.13
UUAGAGCAAUAUUACGCUAG	-0.574 ± 0.12	0.349 ± 0.15
UUAGAGCAAUAUUACGCUAU	-2.27 ± 0.23	-1.75 ± 0.26
UUAGAGCAAUAUUACGCUCA	-1.75 ± 0.18	-0.916 ± 0.26
UUAGAGCAAUAUUACGGAGG	-2.3 ± 0.13	-1.84 ± 0.18
UUAGAGCAAUAUUACGGCCA	-1.02 ± 0.34	0.756 ± 0.35
UUAGAGCAAUAUUACGGCCU	-4.22 ± 0.39	–
UUAGAGCAAUAUUACGGCUG	-0.433 ± 0.12	0.354 ± 0.17
UUAGAGCAAUAUUACGGGAG	-2.32 ± 0.15	-1.32 ± 0.18
UUAGAGCAAUAUUACGGGGA	-2.48 ± 0.21	-1 ± 0.2
UUAGAGCAAUAUUACGGGUA	-3.06 ± 0.22	-1.62 ± 0.19
UUAGAGCAAUAUUACGGUUC	-2.42 ± 0.4	–
UUAGAGCAAUAUUACGUAUG	-1.6 ± 0.085	-1.31 ± 0.12
UUAGAGCAAUAUUACGUCAC	–	-2.76 ± 0.48
UUAGAGCAAUAUUACGUCAU	-3.46 ± 0.31	-2.25 ± 0.33
UUAGAGCAAUAUUACGUCGA	-1.18 ± 0.12	0.172 ± 0.14
UUAGAGCAAUAUUACGUGAA	-2.16 ± 0.12	-0.588 ± 0.13
UUAGAGCAAUAUUACGUGCC	–	-1.58 ± 0.33
UUAUAGCAAUAUUACGAACU	-2.51 ± 0.18	-0.944 ± 0.18
UUAUAGCAAUAUUACGAAGC	-2.27 ± 0.42	–
UUAUAGCAAUAUUACGACCU	-3.38 ± 0.29	-0.509 ± 0.18
UUAUAGCAAUAUUACGACGA	-0.378 ± 0.098	0.212 ± 0.1
UUAUAGCAAUAUUACGACUU	-1.85 ± 0.28	-0.00223 ± 0.29
UUAUAGCAAUAUUACGAUUC	-2.51 ± 0.27	-1.17 ± 0.31
UUAUAGCAAUAUUACGCAAC	-1.99 ± 0.34	-1.6 ± 0.2

From the supplement of paper PMC7877785
